In patent US20250092133A1 (Amgen, published 2025):

T1: Hu CDH3 Dom1B mu (aa 144-179), human/mouse chimeric CDH3 on CHO cells (chimeric hu/mu, UniProt P22223 108-681 (human entry))
T1 chain: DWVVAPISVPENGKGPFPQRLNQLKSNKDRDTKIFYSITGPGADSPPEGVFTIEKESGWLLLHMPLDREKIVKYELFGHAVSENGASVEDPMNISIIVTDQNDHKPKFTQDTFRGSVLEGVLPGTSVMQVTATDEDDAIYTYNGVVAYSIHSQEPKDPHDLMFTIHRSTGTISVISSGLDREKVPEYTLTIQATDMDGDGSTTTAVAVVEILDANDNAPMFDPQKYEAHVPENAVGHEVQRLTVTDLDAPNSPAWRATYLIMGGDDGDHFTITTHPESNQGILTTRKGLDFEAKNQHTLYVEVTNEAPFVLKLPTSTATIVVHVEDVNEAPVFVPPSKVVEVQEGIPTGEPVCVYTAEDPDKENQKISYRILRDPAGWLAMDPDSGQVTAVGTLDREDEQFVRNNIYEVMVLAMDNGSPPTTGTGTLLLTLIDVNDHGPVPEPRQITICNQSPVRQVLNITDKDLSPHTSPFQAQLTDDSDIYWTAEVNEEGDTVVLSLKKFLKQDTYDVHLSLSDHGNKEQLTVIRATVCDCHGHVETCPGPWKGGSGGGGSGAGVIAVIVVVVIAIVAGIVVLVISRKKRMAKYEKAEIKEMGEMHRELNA

T2: Hu CDH3 Dom1C mu (aa 180-215), human/mouse chimeric CDH3 on CHO cells (chimeric hu/mu, UniProt P22223 108-681 (human entry))
T2 chain: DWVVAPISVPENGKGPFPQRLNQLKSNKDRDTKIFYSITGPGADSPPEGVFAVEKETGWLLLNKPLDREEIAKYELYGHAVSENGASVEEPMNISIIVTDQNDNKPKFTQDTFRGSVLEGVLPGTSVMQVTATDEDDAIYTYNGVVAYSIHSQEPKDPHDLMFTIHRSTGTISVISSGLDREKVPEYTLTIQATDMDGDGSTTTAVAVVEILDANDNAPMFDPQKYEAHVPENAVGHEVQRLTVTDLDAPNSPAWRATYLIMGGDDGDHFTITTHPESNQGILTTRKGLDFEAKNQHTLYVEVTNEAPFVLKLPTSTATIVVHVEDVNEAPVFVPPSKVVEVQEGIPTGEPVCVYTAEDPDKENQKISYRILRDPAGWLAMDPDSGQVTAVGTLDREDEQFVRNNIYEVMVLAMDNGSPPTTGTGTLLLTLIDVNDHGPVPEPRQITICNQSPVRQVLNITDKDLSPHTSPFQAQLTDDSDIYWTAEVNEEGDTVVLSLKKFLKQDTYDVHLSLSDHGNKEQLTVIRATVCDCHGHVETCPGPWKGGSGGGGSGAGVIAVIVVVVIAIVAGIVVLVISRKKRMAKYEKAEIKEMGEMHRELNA

T3: Hu CDH3 Dom2 mu (aa 216-327), human/mouse chimeric CDH3 on CHO cells (chimeric hu/mu)
T3 chain: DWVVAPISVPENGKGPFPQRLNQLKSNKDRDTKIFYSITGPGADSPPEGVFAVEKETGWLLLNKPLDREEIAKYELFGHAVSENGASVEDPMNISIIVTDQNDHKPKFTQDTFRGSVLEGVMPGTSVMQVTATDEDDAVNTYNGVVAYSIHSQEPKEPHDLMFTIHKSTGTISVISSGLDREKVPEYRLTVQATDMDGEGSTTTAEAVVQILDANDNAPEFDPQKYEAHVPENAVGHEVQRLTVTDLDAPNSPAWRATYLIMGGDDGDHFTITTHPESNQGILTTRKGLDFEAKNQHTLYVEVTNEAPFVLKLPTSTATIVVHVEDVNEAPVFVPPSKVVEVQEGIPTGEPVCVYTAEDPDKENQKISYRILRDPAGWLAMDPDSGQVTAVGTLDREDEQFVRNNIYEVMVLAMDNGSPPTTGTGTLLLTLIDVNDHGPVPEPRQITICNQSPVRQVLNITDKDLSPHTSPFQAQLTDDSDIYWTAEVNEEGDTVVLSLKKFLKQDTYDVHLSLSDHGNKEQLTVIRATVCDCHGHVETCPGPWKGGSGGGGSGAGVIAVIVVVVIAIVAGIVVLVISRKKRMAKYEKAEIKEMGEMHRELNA

T4: murine CDH3 on cells (mouse, UniProt P10287 100-822)
T4 construct: negative control; also called mouse CDH3
T4 sequence: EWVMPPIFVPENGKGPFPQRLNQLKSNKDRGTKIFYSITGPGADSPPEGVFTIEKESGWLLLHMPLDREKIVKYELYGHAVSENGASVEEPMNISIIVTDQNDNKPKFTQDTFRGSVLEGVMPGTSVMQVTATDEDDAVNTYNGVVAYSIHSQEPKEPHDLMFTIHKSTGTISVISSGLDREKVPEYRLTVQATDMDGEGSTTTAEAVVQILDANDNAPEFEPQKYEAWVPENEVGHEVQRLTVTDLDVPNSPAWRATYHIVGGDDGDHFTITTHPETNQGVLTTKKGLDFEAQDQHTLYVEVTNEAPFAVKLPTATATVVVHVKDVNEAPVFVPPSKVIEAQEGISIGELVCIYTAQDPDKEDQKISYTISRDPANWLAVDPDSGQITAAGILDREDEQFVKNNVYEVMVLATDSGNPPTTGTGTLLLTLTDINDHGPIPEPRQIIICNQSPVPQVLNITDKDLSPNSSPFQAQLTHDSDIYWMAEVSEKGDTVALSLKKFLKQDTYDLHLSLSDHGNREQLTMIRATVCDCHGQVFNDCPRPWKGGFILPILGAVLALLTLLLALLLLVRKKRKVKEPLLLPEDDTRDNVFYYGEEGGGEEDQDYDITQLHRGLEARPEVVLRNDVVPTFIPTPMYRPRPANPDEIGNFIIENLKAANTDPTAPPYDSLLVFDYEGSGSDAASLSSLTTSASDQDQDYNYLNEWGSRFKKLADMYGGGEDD


Columns and labels:
[1] = target: T5, Hu CDH3 Dom3 mu (aa 328-440), human/mouse chimeric CDH3 on CHO cells (chimeric hu/mu); test: flow cytometry, transfected CHO cells; crude undiluted periplasmic scFv extract; anti-FLAG M2 + anti-mouse IgG Fcγ-PE; control PBS/2% FCS
Procedure: (§1) Cells transfected with human or murine CDH3, or with the chimeric human/mouse CDH3 molecules (see Example 1) were stained with crude, undiluted periplasmic extract containing scFv binding to human/macaque CDH3. […] As negative control, cells were incubated with PBS/2% FCS instead of the periplasmic extract. The samples were measured by flow cytometry.

[2] = target: T1, Hu CDH3 Dom1B mu (aa 144-179), …; test: flow cytometry, transfected CHO cells; crude periplasmic scFv extract; anti-FLAG M2 + anti-mouse IgG Fcγ-PE
Procedure: as §1

[3] = target: T6, human CDH3 (P-cadherin) on cells (human, UniProt P22223 108-829); test: flow cytometry, transfected CHO cells; crude undiluted periplasmic scFv extract; anti-FLAG M2 + anti-mouse IgG Fcγ-PE; control PBS/2% FCS
T6 construct: The entry includes signal peptide and pro-peptide; extracellular domain D1 starts at aa 108; also called hu CDH3; hu CDH-3
Procedure: as §1

[4] = target: T2, Hu CDH3 Dom1C mu (aa 180-215), …; test: as above
Procedure: as §1

[5] = target: T3, Hu CDH3 Dom2 mu (aa 216-327), …; test: as above
Procedure: as §1

murine CDH3 on cells = target: T4, murine CDH3 on cells; test: flow cytometry, transfected CHO cells; crude periplasmic scFv extract; anti-FLAG M2 + anti-mouse IgG Fcγ-PE
Procedure: as §1

[6] = target: T5, Hu CDH3 Dom3 mu (aa 328-440), …; test: as above
Procedure: as §1

[7] = target: Hu CDH3 Dom3A mu (aa 328-363), human/mouse chimeric CDH3 on CHO cells (chimeric hu/mu, UniProt P22223 108-681 (human entry)); test: as above
Procedure: as §1

[8] = target: T7, Hu CDH3 Dom3C mu (aa 404-440), human/mouse chimeric CDH3 on CHO cells (chimeric hu/mu, UniProt P22223 108-681 (human entry)); test: as above
Procedure: as §1

[9] = target: Hu CDH3 Dom3B mu (aa 364-403), human/mouse chimeric CDH3 on CHO cells (chimeric hu/mu, UniProt P22223 108-681 (human entry)); test: flow cytometry, transfected CHO cells; crude undiluted periplasmic scFv extract; anti-FLAG M2 + anti-mouse IgG Fcγ-PE; control PBS/2% FCS
Procedure: as §1

[10] = target: T7, Hu CDH3 Dom3C mu (aa 404-440), …; test: as above
Procedure: as §1

Row | Binder | binding result [1] | binding result [2] | binding result [3] | binding result [4] | binding result [5] | binding result (murine CDH3 on cells) | binding result [6] | binding result [7] | binding result [8] | binding result [9] | binding result [10]
1 | CDH3-7 (scFv, Used as crude periplasmic extract and detected through a FLAG tag; also called CDH3-7 scFv) scFv: EVQLVEQSGAELVKPGASVKISCKASGYAFSSSWMNWVKQRPGKGLEWIGRIYPGDGETKYNGKFKGKATLTADKSSSTAYMQLSTLTSEDSAVYFCARQRDYGALYAMDYWGQGTSVTVSSGGGGSGGGGSGGGGSELQMTQSPASLSASVGETVTITCRLSENIYSYLAWYRQKEGESPQLLVYNSKTLAEGVPSRFSGSGSGTQFSLKINSLQPEDFGNYYCQNHYGFPFTFGAGTKLEIK | binds |  |  |  |  |  |  |  |  |  | 
2 | CDH3-6 scFv (scFv) scFv: EVQLVEESGPELVKPGASVKISCKASGYAFSSSWMNWVKQRPGKGLEWIGRIYPGDGETKYNGKFKGKATLTADKSSSTAYMQLSSLTSEDSAVYFCARQRDYGALYAMDYWGQGTSVTVSSGGGGSGGGGSGGGGSELVMTQSPASLSASVGETVTITCRASDDIYSYLAWYQQKQGKSPQLLVYNAKTLAEGVPSRFSGSGSGTQFSLKINSLQPEDFGTYYCQNHYVTPFTFGAGTKLEIK | binds | no binding | binds | binds | binds |  |  |  |  |  | 
3 | CDH3-32 scFv (scFv) scFv: EVQLVEQPGAELVRPGTSVKLSCKASGYTFTSYWMHWVKQRPGQGLEWIGVIDTSDSYTIYNQKFKGKATLTVDTSSSTAYMQLSSLTSEDSSVYFCARSGPGYFDVWGQGTTVTVSSGGGGSGGGGSGGGGSELQMTQSPASLSASVGETVTITCRASENIYSYLAWYQQKQGKSPQLLVYNAKTLAEGVPSRFSGSGSGTQFSLKINSLQPEDFGSYYCQHHYGTPYTFGGGTKLEIK |  |  | binds |  | binds | no binding | no binding | no binding | no binding | binds | 

Continued, values first:

Row | binding result [1] | binding result [2] | binding result [3] | binding result [4] | binding result [5] | binding result (murine CDH3 on cells) | binding result [6] | binding result [7] | binding result [8] | binding result [9] | binding result [10] | Binder
4 |  | no binding | binds | binds | binds |  |  |  |  |  |  | CDH3-5 (scFv, Used as crude periplasmic extract and detected through a FLAG tag; also called CDH3-5 scFv) scFv: EVQLVEQSGAELVKPGASVKISCKASGYAFSTSWMNWVKQRPGKGLEWIGRIYPGDGETKYNGKFKGKATLTADKSSSTAYMQLSSLTSEDSAVYFCARQRDYGALYALDYWGQGTRVTVSSGGGGSGGGGSGGGGSELMMTQTPASLSASVGETVTFTCRASENIYSYLAWYQQKQGKSPQLLVYNAKTLAEGVPSRFSGSGSGTQFSLKINSLQPEDFGSYYCQHHYVPPYTFGGGTKLEIK
5 |  |  | binds |  | binds | no binding | no binding |  |  | binds | binds | CDH3-33 scFv (scFv) scFv: EVQLVEQPGAELVRPGTSVKLSCKASGYTFTSYWMHWVKQRPGQGLEWIGVIDTSDSYTIYNQKFKGKATLTVDTSSSTAYMQLSSLTSGDSSVYFCARSGPGYFDVWGQGTTVTVSSGGGGSGGGGSGGGGSELVMTQSPASLSASVGETVTITCRASGNIHNYLAWYQQKQGKSPQLLVYNAKTLADGVPSRFSGSGSGTQYSLKINSLQPEDFGTYYCQHFWSTPYTFGGGTKLEIK
